Measured values: publication PMC6006506
No end group written: not given here. OP = not defined here

Target: monoclonal antibody depY (mouse)
Test: SPR

Binder	Kd [nM]
LYGLPR-{OP} (reading uncertain; also: printed as LYGLPR-OP) [LYGLPR-OP]	12
PPYRM-{OP} (reading uncertain; also: printed as PPYRM-OP) [PPYRM-OP]	360
